# Experimental data from patent publication US10729745B2, “Use of La1-like peptide isolated from maurus palmatus venom as an activator of sperm motility in mammals” (IMV Technologies, priority 2016, dated 2020).
# How the values were obtained:
# Format in all cases: cell-based
# sperm [1] = assay: Toxicity on sperm (sperm vitality)
# Method: Forty μL of sperm were mixed with 20 μL of eosin 1% diluted in NaCl 9/1000 and 20 μL of nigrosine 10% diluted in NaCl 9/1000. Sperm were then layered onto glass slide and dried. A minimum of 100 spermatozoa was analyzed for each assay.
# human sperm = assay: Velocity test on human spermatozoa treated with the peptide (computer-assisted motility analysis, CASA)
# Source text: (§1) Human sperm were obtained from patient consulting at the fertility department of Grenoble, following approval by the ethical committee and informed consent from the patients. All patients gave an informed consent for the conservation of the remnant sperm in the Germetheque biobank and their use in studies on human fertility in accordance with the Helsinki Declaration of 1975 on human experimentation. The Germetheque Scientific Committee approved the present study design. Ejaculate was liquefied at 37° C. for 30 min and sperm were washed twice in Sperm Preparation Medium (Origio, Målov, Denmark) at 500 g for 5 min. Concentration is then adjusted for CASA analysis. Sperm were also frozen with SpermFreeze (Fertipro NV, Beernem, Belgium) for further analysis as frozen sperm.
# (§2) After 10 minutes incubation with the peptide according to SEQ ID NO. 1 (natural, or synthesized), the sperm suspension was immediately placed onto an analysis chamber (Leja Products B.V., Netherlands) of 100 μm depth for mouse sperm and 20 μm depth for human, NHP and bovine sperm, and kept at 37° C. for microscopic quantitative study of sperm movement. Sperm motility parameters were measured at 37° C. using a sperm analyzer (Hamilton Thorn Research, Beverley). The settings employed for analysis were as follows for human, NHP, bovine and mouse respectively: acquisition rate (60;60;60;60) Hz; number of frames: (30;20;30;45); minimum contrast: (80;80;80;50); minimum cell size: (3;4;5;5); low static-size gate: (0,85;0,79;0,1;0,3); high static-size gate: (4,24;2,52;3,4;1,95); low static-intensity gate: (0,39;0,62;0,3;0,5); high static-intensity gate: (1,4;1,4;1,7;1,3); minimum elongation gate: (0;2;8;0); maximum elongation gate: (85;50;97;87); magnification factor: (1,89;1,89;1,89;0,7). The motility parameters measured were curvilinear velocity (VCL) and amplitude of lateral head displacement (ALH). A minimum of 100 motile spermatozoa was analyzed for each assay. Motile sperm were defined by VAP>(1;1;1;1) and progressive sperm were defined by VAP>(25;25;50;30) and STR>(80;80;70;70).
# [2] = test system: testicular sperm from macaca; assay: Motility activation in testicular sperm from Macaca (CASA); details: non-human primate testicular sperm, FIGS. 3 and 4
# Method: FIG. 3: Measurement of motile cells and progressive cells after incubation of testicular sperm from macaca (non-human primate) with (7.8 Kda peptide) and without (Control) peptide SEQ ID NO. 1. Motile sperm and progressive sperm were characterized by VAP>1 μm/s and VAP>30 μm/s and STR>70%, respectively. STR=VSL/VAP. Statistical analyses were performed with SigmaPlot. t tests were used to compare the effects of La1-like peptide on sperm motility parameters. Data represent mean±SEM. Statistical tests with a 2-tailed P values 0.05 were considered significant. […]
# After 10 minutes incubation with the peptide according to SEQ ID NO. 1 (natural, or synthesized), the sperm suspension was immediately placed onto an analysis chamber (Leja Products B.V., Netherlands) of 100 μm depth for mouse sperm and 20 μm depth for human, NHP and bovine sperm, and kept at 37° C. for microscopic quantitative study of sperm movement. Sperm motility parameters were measured at 37° C. using a sperm analyzer (Hamilton Thorn Research, Beverley). […] The motility parameters measured were curvilinear velocity (VCL) and amplitude of lateral head displacement (ALH). A minimum of 100 motile spermatozoa was analyzed for each assay. […]
# Macaca testes were collected after euthanasia. […] 1, sperm motility was measured using the same conditions as those in Example 2.
# human ejaculated sperm = assay: Motility of fresh and frozen human ejaculated sperm incubated with the peptide (Example 5, FIG. 5)
# Method: FIG. 5: Measurement of % motile cells and progressive cells after incubation of fresh (left hand panel) and frozen (right hand panel) human ejaculated sperm with (7.8 kDa peptide) or without (Control) the peptide according to SEQ ID NO. 1. Motile sperm and progressive sperm were characterized by VAP>1 μm/s and VAP>30 μm/s and STR>70%, respectively. STR=VSL/VAP. Statistical analyses were performed with SigmaPlot. t tests were used to compare the effects of La1-like peptide on sperm motility parameters. Data represent mean±SEM. Statistical tests with a 2-tailed P values≤0.05 were considered significant.
# as §1, §2
# [3] = test system: mouse oocytes and capacitated sperm; assay: Fertilization study in mice (in vitro fertilization, 2-cell embryos scored)
# Method: Eggs were collected from mature OF1 females, synchronized with 5 units of pregnant mare serum gonadotrophin (PMSG) and 5 units of human chorionic gonadotrophin (hCG). Sperm were capacitated for 55 minutes in M16 2% BSA (37° C., 5% CO2) and introduced into droplets containing oocytes. The active peptide was introduced into droplets at the same time. Oocytes were incubated with 1.5×10^5 to 5×10^5 capacitated sperm/ml (37° C., 5% CO2) in M16 medium and unbound sperm were washed away after 4 hours incubation. Twenty-four hours after fertilization, the different stages, i.e. unfertilized oocytes (including aborted embryos and corresponding to fragmented oocytes or oocytes blocked after the extrusion of the second polar body) and 2-cell embryos (as an indication of successful fertilization) were scored.
# sperm [4] = assay: Sperm motility tests by the applicants (comparison with papaverine, duration of effect, synthetic versus venom peptide)
# [5] = fresh human sperm samples, FIG. 5 left-hand panel
# [6] = frozen human sperm samples, FIG. 5 right-hand panel
molecule,measurement,setting,value
La-1-like peptide (S Maurus palmatus) SGESCKAGKFTVLVGHQQNDKSTCTLYKCLNFKRKYALQISSCADVDLKSGCRQVPGAASANFPECCPMVICK,toxicity on sperm,sperm [1],no toxicity
same,sperm motility after incubation,"human sperm; human sperm, incubation with peptide, FIG. 2B",increase in sperm motility
same,increase in lateral amplitude (ALH),human sperm; initial lateral amplitude of less than 3.5 μm versus higher initial ALH values,greater increases
same,increase in motility (VAP),human sperm; sperm having an initial VAP of 60 μm/s,about 20%
same,increase in path velocity (VAP),human sperm; sperm having low initial path velocity (VAP),up to 80%
same,motility activation with respect to initial track speed (VCL),"human sperm; sperm with low initial track speed compared to higher initial track speeds, FIG. 2B upper left panel",higher motility activation
same,non-progressive velocity of sperm cells,[2],increase
same,progressive velocity of sperm cells,[2],increase
same,non-progressive motility,human ejaculated sperm; [5],increases
same,progressive motility,human ejaculated sperm; [5],increases
same,non-progressive motility,human ejaculated sperm; [6],increases
same,progressive motility,human ejaculated sperm; [6],increases
same,"effect on motility, frozen samples versus fresh samples",human ejaculated sperm; human sperm,greater for the frozen samples
same,toxicity,[3],not toxic
same,increase of rate of fertilization compared to the control,[3]; number of embryos at the two cell stage,approximately 20%
same,embryo development,[3]; two cell stage,does not prevent embryo development
same,duration of effect on sperm motility,sperm [4],long lasting effect
same,comparison with papaverine,sperm [4]; compared to papaverine,superiority
same,biological activity of synthesized peptide versus peptide isolated from venom,sperm [4]; peptide synthesized using Native Chemical Ligation Strategy,retains the biological activity
